The supplement of paper PMC10065799, “High-throughput profiling of sequence recognition by tyrosine kinases and SH2 domains using bacterial peptide display” (eLife, 2023)

Legend:
[1] = tested on: AncSZ; assay: phosphorylation enrichment, bacterial display (enrichment ratio); higher = better substrate or ligand; peptides without Tyr show the background
[2] = biological target: EPHB1 (UniProt P54762); assay: as above
[3] = biological target: EPHB2 (UniProt P29323); assay: as above
[4] = biological target: FGFR1 (UniProt P11362); assay: as above
[5] = biological target: FGFR3 (UniProt P22607); assay: as above
Sequence of FGFR3 (P22607 whole entry, looked up): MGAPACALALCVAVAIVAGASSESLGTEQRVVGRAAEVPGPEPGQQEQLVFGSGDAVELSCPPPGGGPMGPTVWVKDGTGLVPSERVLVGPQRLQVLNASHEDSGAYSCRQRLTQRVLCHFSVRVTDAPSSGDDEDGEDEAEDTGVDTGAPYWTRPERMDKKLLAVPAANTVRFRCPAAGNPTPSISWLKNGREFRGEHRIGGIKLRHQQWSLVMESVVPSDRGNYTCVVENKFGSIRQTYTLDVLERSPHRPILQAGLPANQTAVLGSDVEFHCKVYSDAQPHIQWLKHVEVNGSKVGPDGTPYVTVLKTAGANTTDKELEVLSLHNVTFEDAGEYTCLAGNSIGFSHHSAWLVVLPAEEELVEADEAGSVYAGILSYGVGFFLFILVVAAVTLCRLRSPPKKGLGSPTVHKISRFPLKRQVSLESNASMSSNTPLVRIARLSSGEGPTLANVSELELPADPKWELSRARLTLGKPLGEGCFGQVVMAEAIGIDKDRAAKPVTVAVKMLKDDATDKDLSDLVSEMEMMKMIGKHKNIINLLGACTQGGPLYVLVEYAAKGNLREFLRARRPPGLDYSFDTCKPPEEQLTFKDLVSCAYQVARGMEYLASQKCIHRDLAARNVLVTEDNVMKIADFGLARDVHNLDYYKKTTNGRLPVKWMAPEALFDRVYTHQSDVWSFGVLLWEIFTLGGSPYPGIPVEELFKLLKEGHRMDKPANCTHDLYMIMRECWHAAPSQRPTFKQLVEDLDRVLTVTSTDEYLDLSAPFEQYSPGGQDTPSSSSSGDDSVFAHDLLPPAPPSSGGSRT

[6] = tested on: Fer (mouse); assay: as above
[7] = biological target: Fes (UniProt P07332); assay: as above
[8] = biological target: Fyn (UniProt P06241); assay: as above
Sequence of Fyn (P06241 whole entry, looked up): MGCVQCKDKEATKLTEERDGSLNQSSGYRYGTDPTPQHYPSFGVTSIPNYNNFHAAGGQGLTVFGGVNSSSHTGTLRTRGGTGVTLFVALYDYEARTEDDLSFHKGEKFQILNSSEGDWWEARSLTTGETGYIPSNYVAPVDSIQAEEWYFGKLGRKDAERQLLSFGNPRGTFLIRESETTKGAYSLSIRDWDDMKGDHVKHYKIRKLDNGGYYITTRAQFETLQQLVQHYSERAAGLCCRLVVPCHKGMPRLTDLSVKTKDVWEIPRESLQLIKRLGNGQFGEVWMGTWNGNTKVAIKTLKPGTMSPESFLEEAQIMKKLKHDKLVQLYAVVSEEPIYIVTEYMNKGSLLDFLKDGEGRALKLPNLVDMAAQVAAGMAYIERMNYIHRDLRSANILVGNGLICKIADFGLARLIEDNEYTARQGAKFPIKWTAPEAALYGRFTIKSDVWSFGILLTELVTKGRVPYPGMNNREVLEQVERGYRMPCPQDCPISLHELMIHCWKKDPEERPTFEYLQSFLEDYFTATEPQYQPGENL

[9] = biological target: Hck (UniProt P08631); assay: as above
Sequence of Hck (P08631 whole entry, looked up): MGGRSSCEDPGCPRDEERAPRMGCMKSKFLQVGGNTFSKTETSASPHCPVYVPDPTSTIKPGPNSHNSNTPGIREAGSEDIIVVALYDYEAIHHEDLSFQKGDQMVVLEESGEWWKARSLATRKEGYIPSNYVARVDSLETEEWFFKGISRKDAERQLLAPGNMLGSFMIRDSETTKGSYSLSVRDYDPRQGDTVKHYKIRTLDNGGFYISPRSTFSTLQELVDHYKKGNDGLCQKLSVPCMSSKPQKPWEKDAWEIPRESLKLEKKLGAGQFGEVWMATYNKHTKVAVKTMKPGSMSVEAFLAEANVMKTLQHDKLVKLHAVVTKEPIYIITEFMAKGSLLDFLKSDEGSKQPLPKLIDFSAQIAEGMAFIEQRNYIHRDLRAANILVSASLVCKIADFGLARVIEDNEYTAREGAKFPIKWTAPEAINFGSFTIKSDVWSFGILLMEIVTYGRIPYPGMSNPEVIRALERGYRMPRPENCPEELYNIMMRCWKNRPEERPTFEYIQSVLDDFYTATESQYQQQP

[10] = biological target: Jak2 (UniProt O60674); assay: as above
Sequence of Jak2 (O60674 whole entry, looked up): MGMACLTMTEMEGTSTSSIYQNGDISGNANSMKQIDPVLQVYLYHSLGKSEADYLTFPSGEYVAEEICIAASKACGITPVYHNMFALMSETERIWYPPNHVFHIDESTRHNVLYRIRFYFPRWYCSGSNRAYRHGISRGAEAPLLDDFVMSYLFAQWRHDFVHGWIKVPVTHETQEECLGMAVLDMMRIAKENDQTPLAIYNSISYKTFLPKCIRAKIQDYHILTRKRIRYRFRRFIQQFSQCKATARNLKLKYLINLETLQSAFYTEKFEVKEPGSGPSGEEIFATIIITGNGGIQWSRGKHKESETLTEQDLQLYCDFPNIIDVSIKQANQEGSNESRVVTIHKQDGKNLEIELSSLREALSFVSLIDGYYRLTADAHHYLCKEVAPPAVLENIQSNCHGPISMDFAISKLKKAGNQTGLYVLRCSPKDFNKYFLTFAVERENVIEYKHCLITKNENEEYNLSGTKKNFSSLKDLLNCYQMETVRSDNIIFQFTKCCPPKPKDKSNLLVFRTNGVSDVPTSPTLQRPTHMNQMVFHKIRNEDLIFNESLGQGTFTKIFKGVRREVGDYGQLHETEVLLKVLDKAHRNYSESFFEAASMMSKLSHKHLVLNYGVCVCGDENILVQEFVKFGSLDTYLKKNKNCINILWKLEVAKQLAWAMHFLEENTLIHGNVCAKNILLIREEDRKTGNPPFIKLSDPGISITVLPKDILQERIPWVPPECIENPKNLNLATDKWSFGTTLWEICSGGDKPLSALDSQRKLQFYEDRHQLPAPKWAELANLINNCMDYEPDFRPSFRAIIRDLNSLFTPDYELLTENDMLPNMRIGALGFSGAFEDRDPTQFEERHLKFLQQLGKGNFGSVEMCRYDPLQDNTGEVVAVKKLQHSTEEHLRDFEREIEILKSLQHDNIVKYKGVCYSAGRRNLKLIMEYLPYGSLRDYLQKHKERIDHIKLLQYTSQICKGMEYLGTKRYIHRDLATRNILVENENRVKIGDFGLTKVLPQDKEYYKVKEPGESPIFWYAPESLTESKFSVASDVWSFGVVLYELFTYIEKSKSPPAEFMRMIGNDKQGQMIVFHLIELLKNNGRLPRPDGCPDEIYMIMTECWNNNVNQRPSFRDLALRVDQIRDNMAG

[11] = biological target: MERTK (UniProt Q12866); assay: as above
Sequence of MERTK (Q12866 whole entry, looked up): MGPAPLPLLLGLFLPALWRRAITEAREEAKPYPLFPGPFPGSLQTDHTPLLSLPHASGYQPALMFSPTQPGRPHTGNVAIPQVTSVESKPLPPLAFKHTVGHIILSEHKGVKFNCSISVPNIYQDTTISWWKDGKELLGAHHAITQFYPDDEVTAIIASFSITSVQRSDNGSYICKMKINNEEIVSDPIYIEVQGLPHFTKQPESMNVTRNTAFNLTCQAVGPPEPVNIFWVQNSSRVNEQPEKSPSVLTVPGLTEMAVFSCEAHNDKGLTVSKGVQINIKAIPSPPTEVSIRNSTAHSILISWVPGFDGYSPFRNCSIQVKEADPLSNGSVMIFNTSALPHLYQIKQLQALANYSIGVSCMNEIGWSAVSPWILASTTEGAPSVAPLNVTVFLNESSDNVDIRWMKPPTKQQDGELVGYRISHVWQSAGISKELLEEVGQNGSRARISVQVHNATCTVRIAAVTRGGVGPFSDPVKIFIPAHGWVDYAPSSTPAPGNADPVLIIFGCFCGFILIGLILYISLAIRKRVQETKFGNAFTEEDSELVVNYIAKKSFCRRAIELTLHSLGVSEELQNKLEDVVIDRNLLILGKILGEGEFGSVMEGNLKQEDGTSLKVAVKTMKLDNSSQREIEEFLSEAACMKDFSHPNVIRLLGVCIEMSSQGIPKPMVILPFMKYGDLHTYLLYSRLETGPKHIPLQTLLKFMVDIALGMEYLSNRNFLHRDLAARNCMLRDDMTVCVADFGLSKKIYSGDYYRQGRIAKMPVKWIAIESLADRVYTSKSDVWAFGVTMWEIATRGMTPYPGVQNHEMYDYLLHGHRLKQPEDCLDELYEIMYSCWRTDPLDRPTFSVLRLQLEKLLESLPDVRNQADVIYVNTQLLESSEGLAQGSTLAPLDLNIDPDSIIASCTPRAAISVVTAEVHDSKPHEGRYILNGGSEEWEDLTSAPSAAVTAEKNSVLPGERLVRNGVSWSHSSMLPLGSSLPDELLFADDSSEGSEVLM

[12] = tested on: c-Abl (mouse); assay: as above
[13] = tested on: c-Src; assay: as above
[14] = biological target: Grb2 SH2 (UniProt P62993); assay: SH2 binding enrichment of the phosphorylated peptide, bacterial display (enrichment ratio); higher = better substrate or ligand; peptides without Tyr show the background
[15] = biological target: SHP2-C SH2; assay: as above
[16] = biological target: c-Src SH2; assay: as above
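Wherever SH2 binding enrichment of the phosphorylated peptide, bacterial display is given: peptide library displayed on the E. coli surface as eCPX fusions, selected cells deep-sequenced, score is each peptide's frequency after selection divided by its frequency in the input.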
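Wherever phosphorylation enrichment, bacterial display is given: 11-residue human phosphosite peptides and single-mutation variants displayed on the E. coli surface, counted by deep sequencing, each peptide's frequency after selection divided by its frequency in the unselected input library; frequency after pTyr selection over input frequency; kinase dosed for 20-30% of maximal phosphorylation in three min.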

Sequence of EPHB2 (P29323 whole entry, looked up): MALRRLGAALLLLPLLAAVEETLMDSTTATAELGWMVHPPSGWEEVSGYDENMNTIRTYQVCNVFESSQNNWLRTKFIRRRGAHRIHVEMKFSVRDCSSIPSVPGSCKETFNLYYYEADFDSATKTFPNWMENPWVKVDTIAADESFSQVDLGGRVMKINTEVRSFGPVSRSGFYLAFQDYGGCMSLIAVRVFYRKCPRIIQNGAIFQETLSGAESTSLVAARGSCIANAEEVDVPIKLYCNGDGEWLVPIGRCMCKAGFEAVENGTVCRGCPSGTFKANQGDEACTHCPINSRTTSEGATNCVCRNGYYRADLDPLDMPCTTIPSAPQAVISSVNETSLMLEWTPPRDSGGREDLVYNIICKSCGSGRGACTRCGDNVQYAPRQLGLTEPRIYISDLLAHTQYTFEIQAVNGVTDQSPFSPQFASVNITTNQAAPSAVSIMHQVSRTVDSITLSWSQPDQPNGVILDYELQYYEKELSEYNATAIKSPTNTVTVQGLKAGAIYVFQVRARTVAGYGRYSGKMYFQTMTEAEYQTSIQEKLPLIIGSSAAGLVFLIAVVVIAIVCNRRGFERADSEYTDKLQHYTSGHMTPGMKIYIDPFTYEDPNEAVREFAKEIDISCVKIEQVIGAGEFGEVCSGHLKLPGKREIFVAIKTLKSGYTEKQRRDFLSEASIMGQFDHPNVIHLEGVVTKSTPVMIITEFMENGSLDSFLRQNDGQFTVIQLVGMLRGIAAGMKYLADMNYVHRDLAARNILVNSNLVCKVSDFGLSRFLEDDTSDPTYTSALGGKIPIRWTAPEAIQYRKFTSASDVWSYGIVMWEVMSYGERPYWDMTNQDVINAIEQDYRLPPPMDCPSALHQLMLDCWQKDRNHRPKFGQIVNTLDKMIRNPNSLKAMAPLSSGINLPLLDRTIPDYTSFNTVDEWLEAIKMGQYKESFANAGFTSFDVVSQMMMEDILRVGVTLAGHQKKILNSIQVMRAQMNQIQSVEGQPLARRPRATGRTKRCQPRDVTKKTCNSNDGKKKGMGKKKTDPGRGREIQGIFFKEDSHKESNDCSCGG

| Sequence | phosphorylation enrichment [1] | phosphorylation enrichment [2] | phosphorylation enrichment [3] | phosphorylation enrichment [4] | phosphorylation enrichment [5] | phosphorylation enrichment [6] | phosphorylation enrichment [7] | phosphorylation enrichment [8] | phosphorylation enrichment [9] | phosphorylation enrichment [10] | phosphorylation enrichment [11] | phosphorylation enrichment [12] | phosphorylation enrichment [13] | SH2 binding enrichment [14] | SH2 binding enrichment [15] | SH2 binding enrichment [16] |
| --- | --- | --- | --- | --- | --- | --- | --- | --- | --- | --- | --- | --- | --- | --- | --- | --- |
| GKFFQYDTWNQ [IGF2_Y116_K120N] | 1.06 | 0.545 | 0.7 | 0.643 | 0.639 | 0.533 | 1.07 | 0.51 | 0.741 | 0.933 | 0.588 | 0.78 | 0.872 | 0.746 | 0.718 | 0.761 |
| GKTQQYDCKWF [BCR_Y751_YF] | 0.848 | 0.596 | 0.563 | 0.472 | 0.63 | 0.463 | 1.07 | 0.432 | 0.425 | 0.927 | 0.451 | 0.748 | 0.43 | 0.826 | 0.624 | 0.466 |
| GLRFGYGVLGG [KRTAP20-2_Y15_YF] | 0.742 | 0.413 | 0.488 | 0.358 | 0.574 | 0.387 | 0.782 | 0.548 | 0.376 | 0.562 | 0.311 | 0.519 | 0.434 | 0.674 | 0.893 | 0.493 |
| GNHISYFQSDG [CACNA1C_Y1757_V1755I_YF] | 0.742 | 0.552 | 0.44 | 0.483 | 0.496 | 0.39 | 0.918 | 0.418 | 0.392 | 0.566 | 0.376 | 0.511 | 0.395 | 0.927 | 0.806 | 0.401 |
| GNKENYGLPQP [BUB1_Y538] | 0.634 | 0.489 | 0.533 | 0.372 | 0.609 | 0.353 | 0.69 | 0.321 | 0.342 | 0.532 | 0.341 | 1.26 | 0.392 | 0.575 | 0.677 | 0.375 |
| GNLLIYTELGK [HGD_Y166_F169L] | 1.46 | 3.98 | 2.57 | 1.29 | 1.19 | 0.986 | 1.43 | 5.68 | 5.3 | 1.21 | 4.86 | 2.29 | 4.74 | 0.756 | 0.478 | 0.381 |
| GPKFGYDEIDN [ACOX1_Y232] | 0.993 | 0.44 | 0.688 | 0.42 | 0.527 | 0.344 | 0.874 | 0.406 | 0.359 | 0.765 | 0.381 | 0.531 | 0.453 | 0.845 | 0.658 | 16.7 |
| GQKVAYGGTGD [ALDH3A1_Y305] | 0.582 | 0.268 | 0.342 | 0.354 | 0.416 | 0.384 | 0.558 | 0.349 | 0.387 | 0.417 | 0.412 | 0.569 | 0.371 | 0.756 | 0.608 | 0.48 |
| GQSKGYRPKLF [SIPA1L3_Y1376_YF] | 0.433 | 0.319 | 0.324 | 0.364 | 0.419 | 0.342 | 0.837 | 0.363 | 0.395 | 0.37 | 0.389 | 0.448 | 0.412 | 0.742 | 0.548 | 0.299 |
| GREAEYSDKHG [EPHB4_Y574] | 0.64 | 0.392 | 0.44 | 0.388 | 0.547 | 0.472 | 0.821 | 0.773 | 0.354 | 0.582 | 0.39 | 0.571 | 0.405 | 0.809 | 0.618 | 0.402 |
| GRPMDYHVSIT [OTOF_Y254_Q255H] | 0.732 | 0.532 | 0.453 | 0.453 | 0.577 | 0.559 | 0.923 | 0.456 | 0.479 | 0.83 | 0.414 | 0.626 | 0.4 | 0.825 | 0.698 | 0.575 |
| GRPMDYQVSIT [OTOF_Y254] | 0.812 | 0.517 | 0.624 | 0.473 | 0.51 | 0.508 | 0.775 | 0.403 | 0.417 | 0.727 | 0.416 | 0.662 | 0.449 | 0.767 | 0.656 | 0.456 |
| GRQGIYTENKR [GPR143_Y231_E235K] | 0.723 | 0.349 | 0.347 | 0.477 | 0.477 | 0.346 | 0.585 | 0.372 | 0.437 | 0.527 | 0.53 | 0.46 | 0.529 | 0.874 | 0.762 | 0.61 |
| GRRNTCFASIA [ACADM_Y352_Y352C_YF] | 0.665 | 0.383 | 0.348 | 0.377 | 0.405 | 0.424 | 0.691 | 0.401 | 0.365 | 0.711 | 0.413 | 0.556 | 0.391 | 0.842 | 0.565 | 0.529 |
| GRVYVYRLSEQ [ITGAE_Y551] | 0.858 | 0.539 | 0.471 | 0.411 | 0.661 | 0.508 | 1.04 | 0.568 | 0.462 | 0.83 | 0.4 | 0.683 | 0.725 | 1.41 | 11.3 | 1.16 |
| GSPPPYRRRKR [MBD1_Y403] | 0.665 | 0.451 | 0.625 | 0.464 | 0.601 | 0.608 | 0.605 | 0.535 | 0.537 | 0.519 | 0.593 | 0.55 | 0.638 | 0.597 | 0.41 | 0.458 |
| GVFSRYFTTFD [CLCA1_Y661_YF] | 0.954 | 0.458 | 0.512 | 0.468 | 0.631 | 0.433 | 0.959 | 0.438 | 0.661 | 1.15 | 0.393 | 0.679 | 0.481 | 0.891 | 0.789 | 0.395 |

| Sequence | phosphorylation enrichment [1] | phosphorylation enrichment [2] | phosphorylation enrichment [3] | phosphorylation enrichment [4] | phosphorylation enrichment [5] | phosphorylation enrichment [6] | phosphorylation enrichment [7] | phosphorylation enrichment [8] | phosphorylation enrichment [9] | phosphorylation enrichment [10] | phosphorylation enrichment [11] | phosphorylation enrichment [12] | phosphorylation enrichment [13] | SH2 binding enrichment [14] | SH2 binding enrichment [15] | SH2 binding enrichment [16] |
| --- | --- | --- | --- | --- | --- | --- | --- | --- | --- | --- | --- | --- | --- | --- | --- | --- |
| HAKKNYGNSSV [HDX_Y197] | 0.398 | 0.316 | 0.162 | 0.406 | 0.281 | 0.407 | 0.409 | 0.262 | 0.387 | 0.396 | 0.355 | 0.508 | 0.355 | 1.04 | 0.69 | 0.414 |
| HDRNTYEKYLG [TF_Y666] | 2.4 | 0.781 | 0.759 | 0.676 | 0.909 | 0.668 | 0.796 | 1.41 | 1.4 | 0.453 | 0.765 | 0.731 | 1.82 | 0.935 | 0.874 | 1.21 |
| HEKKAYAFCGT [RPS6KA3_Y226_S227A] | 0.654 | 0.561 | 0.46 | 0.751 | 0.581 | 0.46 | 0.887 | 0.54 | 0.63 | 0.516 | 0.458 | 0.649 | 0.498 | 1.04 | 0.888 | 0.721 |
| HELFVYKCDEN [DOCK3_Y548_YF] | 2.31 | 1.13 | 1.13 | 0.995 | 1.53 | 1.15 | 2.21 | 1.54 | 1.19 | 1.95 | 0.76 | 1.5 | 1.18 | 1.14 | 0.698 | 0.561 |
| HELFVYKSDEN [DOCK3_Y548_C550S_YF] | 1.87 | 0.706 | 0.84 | 0.94 | 1.13 | 0.927 | 2 | 0.734 | 0.66 | 2.04 | 0.505 | 1.11 | 0.616 | 0.973 | 0.662 | 0.604 |
| HESEIYGKVCF [CSRP3_Y57_C58G_YF] | 1.58 | 0.885 | 0.911 | 0.813 | 0.939 | 6.89 | 1.71 | 6.51 | 3.95 | 1.19 | 1.24 | 1.34 | 4.61 | 0.998 | 0.672 | 0.456 |
| HESEIYGKVCY [CSRP3_Y57_C58G] | 1.36 | 0.828 | 0.968 | 0.612 | 0.808 | 8.63 | 1.32 | 8.66 | 5.92 | 1.31 | 1.08 | 2.81 | 6.37 | 0.77 | 0.344 | 0.422 |
| HFVFFYSFLLK [PTEN_Y178_R173H_YF] | 2.18 | 1.32 | 0.844 | 0.682 | 1.14 | 1.01 | 2.93 | 1.07 | 0.819 | 3.35 | 1.44 | 2.85 | 1.55 | 2.43 | 1.14 | 1.05 |
| HHIDFYKETTN [FGFR1_Y654_K656E_YF] | 1.07 | 1.5 | 2.44 | 1.02 | 1.14 | 0.889 | 2.36 | 1.27 | 1.64 | 0.938 | 0.556 | 0.575 | 0.541 | 1.08 | 0.933 | 0.761 |
| HHTDEYEFDEL [TGM1_Y134_YF] | 1.38 | 0.909 | 0.936 | 1.07 | 0.852 | 0.622 | 1.3 | 0.725 | 0.697 | 1.09 | 0.445 | 0.96 | 0.745 | 1.45 | 1.73 | 0.43 |
| HILRVYSGVLP [PCNX4_Y999_G1000S] | 0.968 | 0.841 | 0.651 | 0.671 | 1.12 | 0.612 | 1.22 | 1.1 | 1.15 | 0.867 | 0.576 | 0.872 | 0.745 | 1.1 | 1.26 | 1.44 |
| HKDNNYISMWF [PAPOLG_Y432_V433I] | 1.93 | 2.88 | 2.15 | 3.2 | 2.46 | 1.14 | 2.53 | 0.934 | 0.866 | 1.46 | 1.33 | 0.975 | 0.663 | 0.726 | 0.51 | 0.346 |
| HKDNNYVSMWF [PAPOLG_Y432] | 1.36 | 6.89 | 4.55 | 3.98 | 2.75 | 2.8 | 1.39 | 0.77 | 0.636 | 1.01 | 1.5 | 0.654 | 0.666 | 1.02 | 0.817 | 0.557 |
| HLAQRYLIWEC [SCN5A_Y694_R689H] | 1.62 | 1.03 | 0.944 | 0.788 | 1.26 | 0.616 | 1.65 | 0.953 | 0.79 | 1.02 | 0.533 | 0.929 | 0.503 | 0.965 | 0.872 | 0.644 |
| HLLRIYYDITD [MMP27_Y307_W304L] | 1.46 | 1.93 | 1.99 | 2.49 | 2.33 | 1.23 | 2.15 | 1.07 | 0.891 | 1.91 | 0.88 | 1.63 | 1.66 | 0.711 | 0.704 | 1.55 |
| HLTNQFMQRVA [PABPC4_Y382_Y382F] | 0.791 | 0.621 | 0.35 | 0.576 | 0.631 | 0.527 | 0.809 | 0.437 | 0.722 | 0.697 | 0.673 | 0.898 | 0.541 | 1.16 | 0.733 | 0.591 |
